Data published in the Human Domainome abundance scans (Beltran et al. 2025).
± gives the uncertainty stated by the source.

B1: POU domain, class 4, transcription factor 1, residues 266 to 347; numbered along this chain, Q01851 (parent)
chain: RELEAFAERFKQRRIKLGVTQADVGSALANLKIPGVGSLSQSTICRFESLTLSHNNMIALKPILQAWLEEAEGAQREKMNKP

Variants of: B1
Assay: abundance fitness (aPCA) (normalised: wild type 0, dead -1); higher = more abundant; growth selection in yeast, the domain comes from the species named
Settings: Homo sapiens

Row | Variant | abundance fitness
1 | E48H | -1.12 ± 0.12
2 | E48I | -1.28 ± 0.17
3 | E48T | -0.954 ± 0.08
4 | E48N | -0.973 ± 0.11
5 | E48P | -0.856 ± 0.076
6 | E48D | -1 ± 0.09
7 | E48W | -0.811 ± 0.078
8 | E48K | -0.823 ± 0.091
9 | E48M | -1.23 ± 0.19
10 | E48S | -0.979 ± 0.063
11 | E48C | -1.27 ± 0.18
12 | E48V | -1.04 ± 0.072
13 | E48A | -1.1 ± 0.094
14 | E48Y | -1.05 ± 0.12
15 | S49T | 0.001 ± 0.035
16 | S49E | 0.045 ± 0.039
17 | S49I | -0.573 ± 0.063
18 | S49C | -0.082 ± 0.037
19 | S49G | -0.002 ± 0.029
20 | S49H | -0.062 ± 0.039
21 | S49R | -0.073 ± 0.029
22 | S49A | -0.004 ± 0.031
23 | S49V | -0.654 ± 0.046
24 | S49W | -0.541 ± 0.053

Row | Variant | abundance fitness
25 | S49M | -0.101 ± 0.037
26 | S49Q | 0.052 ± 0.043
27 | S49L | -0.181 ± 0.03
28 | S49F | -0.632 ± 0.065
29 | S49N | 0.061 ± 0.045
30 | L39T | -0.138 ± 0.085
31 | L39M | 0.01 ± 0.059
32 | L39S | -0.33 ± 0.064
33 | L39R | -0.487 ± 0.044
34 | L39Y | -0.277 ± 0.11
35 | L39W | -0.169 ± 0.046
36 | L39Q | -0.368 ± 0.085
37 | L39P | -0.03 ± 0.072
38 | L39V | 0.001 ± 0.037
39 | C45M | 0.03 ± 0.08
40 | C45F | -0.108 ± 0.097
41 | C45A | 0.057 ± 0.043
42 | C45T | 0.11 ± 0.068
43 | C45K | 0.035 ± 0.058
44 | C45R | 0.056 ± 0.04
45 | C45G | -0.037 ± 0.031
46 | C45H | 0.089 ± 0.12
47 | C45E | 0.06 ± 0.046
48 | C45P | -0.18 ± 0.075

Row | Variant | abundance fitness
49 | C45D | -0.139 ± 0.09
50 | C45I | -0.001 ± 0.09
51 | C45N | -0.084 ± 0.17
52 | C45W | -0.076 ± 0.048
53 | C45L | -0.073 ± 0.05
54 | C45Y | -0.037 ± 0.1
55 | C45S | 0.079 ± 0.047
56 | R46I | -0.971 ± 0.33
57 | R46A | 0.094 ± 0.047
58 | R46K | 0.005 ± 0.089
59 | R46P | -0.576 ± 0.18
60 | R46C | -0.117 ± 0.1
61 | R46S | -0.009 ± 0.059
62 | R46W | -0.391 ± 0.067
63 | R46H | -0.203 ± 0.17
64 | R46M | 0.128 ± 0.084
65 | R46V | -0.503 ± 0.071
66 | R46G | -0.038 ± 0.038
67 | R46E | 0.055 ± 0.061
68 | R46L | -0.176 ± 0.05
69 | R46Y | -0.307 ± 0.17
70 | R46N | 0.047 ± 0.2
71 | R46D | 0.014 ± 0.11
72 | R46Q | 0.042 ± 0.07

Row | Variant | abundance fitness
73 | T43A | -0.044 ± 0.051
74 | T43L | 0.053 ± 0.056
75 | T43V | -0.031 ± 0.045
76 | T43H | 0.063 ± 0.12
77 | T43D | -0.079 ± 0.075
78 | T43W | -0.131 ± 0.068
79 | T43R | -0.483 ± 0.06
80 | T43P | -0.606 ± 0.14
81 | T43Q | -0.113 ± 0.11
82 | T43E | -0.187 ± 0.072
83 | T43C | -0.101 ± 0.072
84 | T43N | -0.199 ± 0.26
85 | T43S | -0.109 ± 0.061
86 | T43M | 0.037 ± 0.076
87 | T43Y | -0.238 ± 0.21
88 | T43K | -0.286 ± 0.15
89 | T43F | -0.587 ± 0.3
90 | Q41T | -0.055 ± 0.062
91 | Q41E | 0.051 ± 0.039
92 | Q41P | 0.104 ± 0.091
93 | Q41G | 0.003 ± 0.034
94 | Q41W | -0.074 ± 0.051
95 | Q41D | 0.048 ± 0.084
96 | Q41V | -0.054 ± 0.04

Row | Variant | abundance fitness
97 | Q41M | -0.074 ± 0.064
98 | Q41I | 0.074 ± 0.14
99 | Q41H | 0.149 ± 0.11
100 | Q41A | 0.053 ± 0.044
101 | Q41K | 0 ± 0.066
102 | Q41Y | -0.194 ± 0.12
103 | Q41N | -0.137 ± 0.13
104 | Q41F | 0.084 ± 0.095
105 | S40E | -0.063 ± 0.051
106 | S40R | -0.155 ± 0.041
107 | S40I | -0.202 ± 0.17
108 | S40M | -0.359 ± 0.096
109 | S40D | 0.042 ± 0.099
110 | S40H | -0.159 ± 0.16
111 | S40F | -0.263 ± 0.11
112 | S40V | -0.331 ± 0.055
113 | S40N | -0.05 ± 0.1
114 | S40L | -0.238 ± 0.052
115 | S40A | -0.129 ± 0.053
116 | S40K | -0.079 ± 0.06
117 | S40Q | -0.072 ± 0.075
118 | S40C | -0.017 ± 0.057
119 | S40Y | -0.307 ± 0.24
120 | S40G | -0.058 ± 0.035

Row | Variant | abundance fitness
121 | S40P | -0.15 ± 0.066
122 | S40W | -0.369 ± 0.076
123 | S42E | 0.004 ± 0.045
124 | S42K | 0.093 ± 0.065
125 | S42I | -0.034 ± 0.093
126 | S42R | -0.006 ± 0.037
127 | S42Q | -0.113 ± 0.065
128 | S42F | -0.199 ± 0.098
129 | S42P | -0.198 ± 0.083
130 | S42A | 0.012 ± 0.05
131 | S42H | -0.152 ± 0.13
132 | S42N | 0.022 ± 0.082
133 | S42C | -0.071 ± 0.055
134 | S42L | -0.107 ± 0.045
135 | S42W | -0.18 ± 0.051
136 | S42Y | -0.185 ± 0.22
137 | S42T | 0.029 ± 0.082
138 | S42M | -0.042 ± 0.073
139 | I44S | -0.68 ± 0.12
140 | I44N | -0.516 ± 0.23
141 | I44T | -0.751 ± 0.15
142 | I44E | -0.814 ± 0.12
143 | I44M | -0.437 ± 0.086
144 | I44P | -0.864 ± 0.22

Row | Variant | abundance fitness
145 | I44W | -0.827 ± 0.12
146 | I44Q | -0.989 ± 0.34
147 | I44A | -1.18 ± 0.21
148 | I44G | -1 ± 0.093
149 | I44D | -0.957 ± 0.48
150 | I44K | -1.04 ± 0.24
151 | I44L | -0.153 ± 0.058
152 | I44F | -0.726 ± 0.2
153 | I44Y | -1.01 ± 0.42
154 | I44R | -0.999 ± 0.12
155 | I44V | 0.029 ± 0.044
156 | F47E | -0.819 ± 0.15
157 | F47P | -0.717 ± 0.19
158 | F47T | -0.822 ± 0.3
159 | F47C | -0.969 ± 0.28
160 | F47Y | -0.272 ± 0.12
161 | F47L | -0.145 ± 0.063
162 | F47R | -0.934 ± 0.12
163 | F47A | -1.03 ± 0.18
164 | F47Q | -1 ± 0.34
165 | F47V | -0.706 ± 0.095
166 | F47S | -0.717 ± 0.14
167 | F47I | -0.917 ± 0.28
